US20190256843A1 (AGILENT TECHNOLOGIES, published 2019)

T1: negative control phosphoprotein AGPADAPAGAVVGGG[S^P/S]PRGRPGPVPAPGLLA fused to N-terminal split mCherry (central residue (position 16 of SEQ ID NO:59) printed as [S^P/S]: phosphoserine with SepOTSλ, serine with tRNA^supD)
T1 construct: also called n.c; (14-3-3 experiment); negative control for the 14-3-3 experiment; not shown: N-terminal split mCherry and linker
T1 chain: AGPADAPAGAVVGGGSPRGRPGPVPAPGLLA


Target: T1, negative control phosphoprotein …
Assay: clonal BiFC split mCherry (negative control of the 14-3-3 experiment)

Row | binding result | Binder
1 | no binding | human 14-3-3β fused to C-terminal split mCherry (C-mCh) with C-terminal 6xHis tag (other, also called 14-3-3 isoform β) MTMDKSELVQKAKLAEQAERYDDMAAAMKAVTEQGHELSNEERNLLSVAYKNVVGARRSSWRVISSIEQKTERNEKKQQMGKEYREKIEAELQDICNDVLELLDKYLIPNATQPESKVFYLKMKGDYFRYLSEVASGDNKQTTVSNSQQAYQEAFEISKKEMQPTHPIRLGLALNFSVFYYEILNSPEKACSLAKTAFDEAIAELDTLNEESYKDSTLIMQLLRDNLTLWTSENQGDEGDAGEGENELGAAAGGSGGALKGEIKQRLKLKDGGHYDAEVKTTYKAKKPVQLPGAYNVNIKLDITSHNEDYTIVEQYERAEGRHSTGGMDELYKHHHHHH
2 | no binding | human 14-3-3σ fused to C-terminal split mCherry (C-mCh) with C-terminal 6xHis tag (other, also called 14-3-3 isoform σ) MERASLIQKAKLAEQAERYEDMAAFMKGAVEKGEELSCEERNLLSVAYKNVVGGQRAAWRVLSSIEQKSNEEGSEEKGPEVREYREKVETELQGVCDTVLGLLDSHLIKEAGDAESRVFYLKMKGDYYRYLAEVATGDDKKRIIDSARSAYQEAMDISKKEMPPTNPIRLGLALNFSVFHYEIANSPEEAISLAKTTFDEAMADLHTLSEDSYKDSTLIMQLLRDNLTLWTADNAGEEGGEAPQEPQSELGAAAGGSGGALKGEIKQRLKLKDGGHYDAEVKTTYKAKKPVQLPGAYNVNIKLDITSHNEDYTIVEQYERAEGRHSTGGMDELYKHHHHHH
